{"source": "paper PMC7105311", "about": "“Structure and function of Bs164 β-mannosidase from Bacteroides salyersiae the founding member of glycoside hydrolase family GH164” (The Journal of Biological Chemistry, 2019)", "target": "Bs164 β-mannosidase from Bacteroides salyersiae CL02T12C01 (His6 tag removed) (Bacteroides salyersiae CL02T12C01)", "experiment": "SEC-MALS; Superdex S200 10/300, 80 mM MES (pH 5.5), 200 mM NaCl, room temperature (20 ± 2 °C), 100 μl injected at 5 mg/ml"}
{"substance": "Bs164 β-mannosidase from Bacteroides salyersiae CL02T12C01 (His6 tag removed) (enzyme)", "values": [{"measurement": "stoichiometry N", "value": 3}]}
